Values of other authors as cited in US10906951B2, “Modified natural killer cells and natural killer cell lines having increased cytotoxicity” (ONK THERAPEUTICS LIMITED, priority 2015, dated 2021).
Numbering of substitutions follows the chain as printed. In names and notes the source's numbering stands.

B1: D269H: TRAIL variant, Van der Sloot 2006 (protein, UniProt P50591 1-281, looked up, variant D269H)
Tumor necrosis factor ligand …: MAMMEVQGGPSLGQTCVLIVIFTVLLQSLCVAVTYVYFTNELKQMQDKYSKSGIACFLKEDDSYWDPNDEESMNSPCWQVKWQLRQLVRKMILRTSEETISTVQEKQQNISPLVRERGPQRVAAHITGTRGRSNTLSSPNSKNEKALGRKINSWESSRSGHSFLSNLHLRNGELVIHEKGFYYIYSQTYFRFQEEIKENTKNDKQMVQYIYKYTSYPDPILLMKSARNSCWSKDAEYGLYSIYQGGIFELKENDRIFVSVTNEHLIDMHHEASFFGAFLVG
B2: E195R: TRAIL variant, Van der Sloot 2006 (protein, UniProt P50591 1-281, looked up, variant E195R)
Tumor necrosis factor ligand …: B1 Tumor necrosis factor ligand … with E195R, H269D
B3: T214R: TRAIL variant, Van der Sloot 2006 (protein, UniProt P50591 1-281, looked up, variant T214R)
Tumor necrosis factor ligand …: B1 Tumor necrosis factor ligand … with T214R, H269D
B4: T214R/E195R: TRAIL variant, Van der Sloot 2006 (protein, UniProt P50591 1-281, looked up, variant T214R E195R)
Tumor necrosis factor ligand …: B1 Tumor necrosis factor ligand … with E195R, T214R, H269D
B5: T214R/D269H: TRAIL variant, Van der Sloot 2006 (protein, UniProt P50591 1-281, looked up, variant T214R D269H)
Tumor necrosis factor ligand …: B1 Tumor necrosis factor ligand … with T214R
B6: N199V: TRAIL variant, MacFarlane 2005 (protein, UniProt P50591 1-281, looked up, variant N199V)
Tumor necrosis factor ligand …: B1 Tumor necrosis factor ligand … with N199V, H269D
B7: Y189A/Q193S/N199V/K201R/Y213W/S215D: TRAIL variant, MacFarlane 2005 (protein, UniProt P50591 1-281, looked up, variant Y189A Q193S N199V K201R Y213W S215D)
Tumor necrosis factor ligand …: B1 Tumor necrosis factor ligand … with Y189A, Q193S, N199V, K201R, Y213W, S215D, H269D
B8: Y213W/S215D: TRAIL variant, MacFarlane 2005 (protein, UniProt P50591 1-281, looked up, variant Y213W S215D)
Tumor necrosis factor ligand …: B1 Tumor necrosis factor ligand … with Y213W, S215D, H269D
B9: D269A: TRAIL DR5 variant, WO 01/00832 (protein, UniProt P50591 1-281, looked up, variant D269A)
Tumor necrosis factor ligand …: B1 Tumor necrosis factor ligand … with H269A
B10: Y240A: TRAIL DR5 variant, WO 01/00832 (protein, UniProt P50591 1-281, looked up, variant Y240A)
Tumor necrosis factor ligand …: B1 Tumor necrosis factor ligand … with Y240A, H269D
B11: S215H: TRAIL DR4 variant, WO 2009/066174 (protein, UniProt P50591 1-281, looked up, variant S215H)
Tumor necrosis factor ligand …: B1 Tumor necrosis factor ligand … with S215H, H269D
B12: S215K: TRAIL DR4 variant, WO 2009/066174 (protein, UniProt P50591 1-281, looked up, variant S215K)
Tumor necrosis factor ligand …: B1 Tumor necrosis factor ligand … with S215K, H269D
B13: S215D: TRAIL DR4 variant, WO 2009/066174 (protein, UniProt P50591 1-281, looked up, variant S215D)
Tumor necrosis factor ligand …: B1 Tumor necrosis factor ligand … with S215D, H269D
B14: D218H: TRAIL DR4 variant, WO 2009/066174 (protein, UniProt P50591 1-281, looked up, variant D218H)
Tumor necrosis factor ligand …: B1 Tumor necrosis factor ligand … with D218H, H269D
B15: K251D: TRAIL DR4 variant, WO 2009/066174 (protein, UniProt P50591 1-281, looked up, variant K251D)
Tumor necrosis factor ligand …: B1 Tumor necrosis factor ligand … with K251D, H269D
B16: G131K: TRAIL DR4 variant, WO 2009/066174 (protein, UniProt P50591 1-281, looked up, variant G131K)
Tumor necrosis factor ligand …: B1 Tumor necrosis factor ligand … with G131K, H269D
B17: K251E: TRAIL DR4 variant, WO 2009/066174 (protein, UniProt P50591 1-281, looked up, variant K251E)
Tumor necrosis factor ligand …: B1 Tumor necrosis factor ligand … with K251E, H269D
B18: K251Q: TRAIL DR4 variant, WO 2009/066174 (protein, UniProt P50591 1-281, looked up, variant K251Q)
Tumor necrosis factor ligand …: B1 Tumor necrosis factor ligand … with K251Q, H269D
B19: R149I: TRAIL DR4 variant, WO 2009/066174 (protein, UniProt P50591 1-281, looked up, variant R149I)
Tumor necrosis factor ligand …: B1 Tumor necrosis factor ligand … with R149I, H269D
B20: R149M: TRAIL DR4 variant, WO 2009/066174 (protein, UniProt P50591 1-281, looked up, variant R149M)
Tumor necrosis factor ligand …: B1 Tumor necrosis factor ligand … with R149M, H269D
B21: R149N: TRAIL DR4 variant, WO 2009/066174 (protein, UniProt P50591 1-281, looked up, variant R149N)
Tumor necrosis factor ligand …: B1 Tumor necrosis factor ligand … with R149N, H269D
B22: R149K: TRAIL DR4 variant, WO 2009/066174 (protein, UniProt P50591 1-281, looked up, variant R149K)
Tumor necrosis factor ligand …: B1 Tumor necrosis factor ligand … with R149K, H269D
B23: S159R: TRAIL DR4 variant, WO 2009/066174 (protein, UniProt P50591 1-281, looked up, variant S159R)
Tumor necrosis factor ligand …: B1 Tumor necrosis factor ligand … with S159R, H269D
B24: Q193H: TRAIL DR4 variant, WO 2009/066174 (protein, UniProt P50591 1-281, looked up, variant Q193H)
Tumor necrosis factor ligand …: B1 Tumor necrosis factor ligand … with Q193H, H269D
B25: Y189Q/R191K/Q193R/H264R/I266L/D267Q: TRAIL DR4 variant, MacFarlane 2005 (protein, UniProt P50591 1-281, looked up, variant Y189Q R191K Q193R H264R I266L D267Q)
Tumor necrosis factor ligand …: B1 Tumor necrosis factor ligand … with Y189Q, R191K, Q193R, H264R, I266L, D267Q, H269D
B26: T261L: TRAIL DcR variant, Leary 2016 (protein, UniProt P50591 1-281, looked up, variant T261L)
Tumor necrosis factor ligand …: B1 Tumor necrosis factor ligand … with T261L, H269D
B27: H270D: TRAIL DcR variant, Leary 2016 (protein, UniProt P50591 1-281, looked up, variant H270D)
Tumor necrosis factor ligand …: B1 Tumor necrosis factor ligand … with H269D, H270D
B28: T200H: TRAIL DcR variant, Leary 2016 (protein, UniProt P50591 1-281, looked up, variant T200H)
Tumor necrosis factor ligand …: B1 Tumor necrosis factor ligand … with T200H, H269D

Tests used:
[1] = target: DR5 (Homo sapiens, UniProt O14763); conditions: in words; known from WO 2009/077857, Van der Sloot 2006, MacFarlane 2005, WO 01/00832; cited from earlier work
[2] = target: DR4 (Homo sapiens, UniProt O00220); conditions: in words; known from WO 2009/066174, MacFarlane 2005; cited from earlier work
[3] = system: TRAIL decoy receptors (DcR1 and DcR2); conditions: in words; known from WO 2009/077857, Leary 2016, WO 01/00832; cited from earlier work

Row | Molecule | affinity for DR5 [1] | affinity for DR4 [2] | other results
1 | B1 | increased affinity for DR5 |  | 
2 | B2 | increased affinity for DR5 |  | 
3 | B3 | increased affinity for DR5 |  | 
4 | B4 | increased affinity for DR5 |  | 
5 | B5 | increased affinity for DR5 |  | 
6 | B6 | increased affinity for DR5 |  | 
7 | B7 | increased affinity for DR5 |  | 
8 | B8 | increased affinity for DR5 |  | 
9 | B9 | DR5 variants |  | 
10 | B10 | DR5 variants |  | 
11 | B11 |  | increased affinity for DR4 | 
12 | B12 |  | increased affinity for DR4 | 
13 | B13 |  | increased affinity for DR4 | 
14 | B14 |  | increased affinity for DR4 | 
15 | B15 |  | increased affinity for DR4 | 
16 | B16 |  | increased affinity for DR4 | 
17 | B17 |  | increased affinity for DR4 | 
18 | B18 |  | increased affinity for DR4 | 
19 | B19 |  | increased affinity for DR4 | 
20 | B20 |  | increased affinity for DR4 | 
21 | B21 |  | increased affinity for DR4 | 
22 | B22 |  | increased affinity for DR4 | 
23 | B23 |  | increased affinity for DR4 | 
24 | B24 |  | increased affinity for DR4 | 
25 | B25 |  | DR4 variants | 
26 | B26 |  |  | affinity for TRAIL decoy receptors [3]: decreased affinity for TRAIL decoy receptors
27 | B27 |  |  | affinity for TRAIL decoy receptors [3]: decreased affinity for TRAIL decoy receptors
28 | B28 |  |  | affinity for TRAIL decoy receptors [3]: decreased affinity for TRAIL decoy receptors
